Experimental data: PMC2676576

Columns and labels:
[1] = biological target: STAM(300-387) of ESCRT-0 core construct b (human) (UniProt Q92783); assay: SDS-PAGE and mass spectrometry of dissolved crystals
[2] = biological target: recombinant full-length human STAM of the full-length ESCRT-0 complex (human) (UniProt Q92783); assay: AUC
[3] = biological target: recombinant full-length human STAM of the full-length ESCRT-0 complex (human) (UniProt Q92783); assay: SEC-MALS

Sequence of recombinant full-length human STAM of the full-length ESCRT-0 complex (human) (Q92783 whole entry, one chain of several): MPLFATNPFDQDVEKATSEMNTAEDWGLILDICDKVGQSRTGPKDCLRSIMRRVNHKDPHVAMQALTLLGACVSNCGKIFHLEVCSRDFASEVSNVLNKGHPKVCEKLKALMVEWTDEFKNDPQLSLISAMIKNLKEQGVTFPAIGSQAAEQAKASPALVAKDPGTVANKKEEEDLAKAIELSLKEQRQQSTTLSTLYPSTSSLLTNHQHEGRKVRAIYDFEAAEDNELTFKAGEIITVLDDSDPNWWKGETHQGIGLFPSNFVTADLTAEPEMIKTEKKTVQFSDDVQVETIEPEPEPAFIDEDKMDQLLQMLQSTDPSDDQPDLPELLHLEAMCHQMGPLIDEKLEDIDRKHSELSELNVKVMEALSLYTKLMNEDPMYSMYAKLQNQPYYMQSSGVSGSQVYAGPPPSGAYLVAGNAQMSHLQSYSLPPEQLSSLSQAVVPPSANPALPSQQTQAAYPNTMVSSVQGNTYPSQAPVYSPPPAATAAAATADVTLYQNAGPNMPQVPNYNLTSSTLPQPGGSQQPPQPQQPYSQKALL
Sequence of Hrs(398-557) of ESCRT-0 core construct b (O14964 398-514): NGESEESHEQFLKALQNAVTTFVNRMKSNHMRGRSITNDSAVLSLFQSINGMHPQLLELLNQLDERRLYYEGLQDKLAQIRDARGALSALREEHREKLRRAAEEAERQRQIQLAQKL

| stoichiometry N [1] | stoichiometry N [2] | stoichiometry N [3] | Substance |
| --- | --- | --- | --- |
| 1 Hrs:STAM | – | – | Hrs(398-557) of ESCRT-0 core construct b (from UniProt O14964 398-557) (domain or fragment) |
| – | 1 Hrs:STAM | 1 Hrs:STAM | recombinant full-length Hrs (mouse Hrs gene) of the full-length ESCRT-0 complex (from UniProt Q99LI8 1-775) (natural protein) |
